In US12599665B2, “Gene fusions for control of genetically modified cells” (A2 Biotherapeutics, Inc., priority 2020, dated 2026):

B1: ESR1-D: fusion protein SEQ ID NO: 4; ESR1 LBD fused to N-terminus of tBID with Bid α3, α6 and α7 helices (protein)
chain: MKKNSLALSLTADQMVSALLDAEPPILYSEYDPTRPFSEASMMGLLTNLADRELVHMINWAKRVPGFVDLTLHDQVHLLECAWLEILMIGLVWRSMEHPGKLLFAPNLLLDRNQGKCVEGMVEIFDMLLATSSRFRMMNLQGEEFVCLKSIILLNSGVYTFLSSTLKSLEEKDHIHRVLDKITDTLIHLMAKAGLTLQQQHQRLAQLLLILSHIRHMSNKGMEHLYSMKCKNVVPLYDLLLEMLDAHRLHAPTGSSQEDIIRNIARHLAQVGDSMDRSIPPGEKTMLVLALLLAKKVASHTPSLLRDVFHTTVNFINQNL
modifications: tBID fusion protein C3445 (ESR1-D)
notes: ESR1 LBD fused to N-terminus of tBID with Bid α3, α6 and α7 helices
B2: ESR1-C: fusion protein SEQ ID NO: 6; ESR1 LBD fused to N-terminus of tBID truncation C (protein)
chain: MKKNSLALSLTADQMVSALLDAEPPILYSEYDPTRPFSEASMMGLLTNLADRELVHMINWAKRVPGFVDLTLHDQVHLLECAWLEILMIGLVWRSMEHPGKLLFAPNLLLDRNQGKCVEGMVEIFDMLLATSSRFRMMNLQGEEFVCLKSIILLNSGVYTFLSSTLKSLEEKDHIHRVLDKITDTLIHLMAKAGLTLQQQHQRLAQLLLILSHIRHMSNKGMEHLYSMKCKNVVPLYDLLLEMLDAHRLHAPTGSSQEDIIRNIARHLAQVGDSMDRSIPPGLVNGLALQLRNTSRSEEDRNRDLATALEQLLQAYPRDMEKEKTMLVLALLLAKKVASHTP
modifications: tBID fusion protein C3443 (ESR1-C)
B3: D-ESR1: fusion protein SEQ ID NO: 5; tBID helices α3, α6 and α7 fused to the N-terminus of ESR1 LBD (protein)
chain: SQEDIIRNIARHLAQVGDSMDRSIPPGEKTMLVLALLLAKKVASHTPSLLRDVFHTTVNFINQNLGSKKNSLALSLTADQMVSALLDAEPPILYSEYDPTRPFSEASMMGLLTNLADRELVHMINWAKRVPGFVDLTLHDQVHLLECAWLEILMIGLVWRSMEHPGKLLFAPNLLLDRNQGKCVEGMVEIFDMLLATSSRFRMMNLQGEEFVCLKSIILLNSGVYTFLSSTLKSLEEKDHIHRVLDKITDTLIHLMAKAGLTLQQQHQRLAQLLLILSHIRHMSNKGMEHLYSMKCKNVVPLYDLLLEMLDAHRLHAPT
modifications: tBID fusion protein C3454 (D-ESR1)
notes: tBID helices α3, α6 and α7 fused to the N-terminus of ESR1 LBD
B4: full length Bid: full length Bid expressed alone in HEK293T cells (protein, UniProt P55957 1-195, looked up)
chain: MDCEVNNGSSLRDECITNLLVFGFLQSCSDNSFRRELDALGHELPVLAPQWEGYDELQTDGNRSSHSRLGRIEADSESQEDIIRNIARHLAQVGDSMDRSIPPGLVNGLALQLRNTSRSEEDRNRDLATALEQLLQAYPRDMEKEKTMLVLALLLAKKVASHTPSLLRDVFHTTVNFINQNLRTYVRSLARNGMD
modifications: full-length
notes: full length Bid expressed alone in HEK293T cells
B5: C150: truncated BID (tBID), a potent apoptosis inducer; construct A tBID lacking a LBD (protein, UniProt P55957 61-195, looked up)
BH3-interacting domain death …: GNRSSHSRLGRIEADSESQEDIIRNIARHLAQVGDSMDRSIPPGLVNGLALQLRNTSRSEEDRNRDLATALEQLLQAYPRDMEKEKTMLVLALLLAKKVASHTPSLLRDVFHTTVNFINQNLRTYVRSLARNGMD
modifications: BH3-interacting domain death agonist p15
B6: C-ESR1: fusion protein SEQ ID NO: 7; tBID helices α3, α4, α5 and α6 fused to the N-terminus of ESR1 LBD (protein)
chain: MSQEDIIRNIARHLAQVGDSMDRSIPPGLVNGLALQLRNTSRSEEDRNRDLATALEQLLQAYPRDMEKEKTMLVLALLLAKKVASHTPGSKKNSLALSLTADQMVSALLDAEPPILYSEYDPTRPFSEASMMGLLTNLADRELVHMINWAKRVPGFVDLTLHDQVHLLECAWLEILMIGLVWRSMEHPGKLLFAPNLLLDRNQGKCVEGMVEIFDMLLATSSRFRMMNLQGEEFVCLKSIILLNSGVYTFLSSTLKSLEEKDHIHRVLDKITDTLIHLMAKAGLTLQQQHQRLAQLLLILSHIRHMSNKGMEHLYSMKCKNVVPLYDLLLEMLDAHRLHAPT
modifications: tBID fusion protein C3452 (C-ESR1)
notes: tBID helices α3, α4, α5 and α6 fused to the N-terminus of ESR1 LBD

Tests used:
Jurkat cells = experiment: Annexin V / PI apoptosis assay in transfected Jurkat cells +/- 4OHT; format: cell-based; conditions: for inducible apoptosis with 4OHT / background apoptosis / killing: 1 ug DNA per 1E6 cells; for inducible apoptosis with 4OHT: 1 uM 4OHT vs solvent control, 18-24 hrs; for background apoptosis / killing: solvent control; for induction of apoptosis with 4OHT / background cell death: 2 ug DNA per 1E6 cells, 20 hours; for induction of apoptosis with 4OHT: 200 nM or 1 uM 4OHT; for background cell death: ethanol solvent control
Experimental: (§1) Jurkat immortalized T lymphocytes were transfected with 1 ug per 1E6 cells using Neon electroporation and incubated in RPMI+20% FBS+0.1% Pen/Strep media for 4 hours before adding 1 uM 4-hydroxytamoxifen (+4OHT) or solvent control (No 4OHT). The cells were incubated with 4OHT for 18-24 hours. The cells were then stained with Annexin V to detect apoptotic cells, as well as propidium iodide (PI) to detect dead cells.
Jurkat cells were transfected with 1 ug of DNA per 1E6 cells using Neon electroporation, treated +/−4OHT for 18-24 hrs, and stained with Annexin V to detect apoptotic cells, as well as PI to detect dead cells (FIG. 5A).
One possibility is that the BID α3 and α6 helices are necessary and sufficient for tBID function. Therefore, we made various truncations that included α3 and α6, as well as various other helices. Jurkat cells were transfected with 1 ug DNA per 1E6 cells, treated with 4OHT or solvent control, then stained as in Example 4. […] One exception was the ESR-D tBID fusion construct, which has the Bid α3, α6 and α7 helices (FIG. 6). 0.3 uM staurosporine (STP) and DMSO solvent control were included as controls.
Jurkat cells were transfected with 1 ug DNA per 1E6 cells, treated with 4OHT or solvent control, then stained as in Example 4. The fold change in apoptosis upon 4OHT addition was determined by dividing the percent Annexin V positive cells treated with 4OHT by the percent Annexin V positive cells treated with a solvent control (FIG. 8). The fold change was calculated from one experiment. As electroporation of empty vector always results in some background death of cells, percent Annexin V positive cells of pLenti was used as the background and subtracted from total percentage to obtain “background subtracted” fold change values.
To determine the effect of 4OHT concentration on apoptosis induction in Jurkat cells, Jurkat cells were transfected with 2 ug DNA per 1E6 cells. 4 hours post-transfection, either ethanol solvent control, 200 nM 4OHT, or 1 uM 4OHT was added to the transfected cells then incubated for 20 hours. The cells were then stained with Annexin V and PI to measure cell death.

HEK293T cells = experiment: Annexin V apoptosis assay in transfected HEK293T cells +/- 4OHT; format: cell-based, Human; conditions: for inducibility of apoptosis with 4OHT: 200 nM or 1 uM 4OHT, ~18-24 hours; for cell death observed: 1 uM 4OHT or solvent control
Experimental: as §1, with “Human Embryonic Kidney (HEK) 293T cells” for “Jurkat immortalized T lymphocytes”, “Lipofectamine 3000” for “Neon electroporation”, “DMEM+10% FBS+1%” for “RPMI+20% FBS+0.1%”, “DAPI” for “propidium iodide (PI)”
HEK293T cells were transfected with varying amounts of DNA of a vector control (pLenti), with construct A tBID (lacking a LBD, C150, see FIG. 5B), or with C-ESR1 or D-ESR1 (FIG. 10, bottom), and assayed for apoptosis using either 200 nM OHT or 1 μM 4OHT.
To determine the effect of amount of DNA as well as 4OHT concentration on apoptosis induction, we titrated both the amount of DNA (2, 3, or 6 ug DNA per 1E6 cells) and the concentration of 4OHT. 500,000 cells HEK293T cells were plated in a 24-well plate. ˜2 hours after plating, appropriate amounts of DNA were transfected using Lipofectamine 3000 and incubated for 4 hours. Either ethanol solvent control, 200 nM 4OHT, or 1 uM 4OHT was added to the transfected cells then incubated for ˜18-24 hours. The cells were then stained as in Example 4. Intriguingly, C-ESR1 was not inducible in HEK293 Ts, unlike in Jurkat cells (Example 6, FIGS. 7 and 11A-B).

primary T cells [1] = experiment: Annexin V / PI apoptosis assay in transduced primary T cells +/- 4OHT; format: cell-based; conditions: lentiviral transduction, 20 hours
Experimental: To characterize tBID-ESR1 safety switch function in primary T cells, D504C cells were transduced with lentiviral constructs containing either C-ESR1 or D-ESR1. The cells were maintained and expanded in media containing 300 IU/mL IL-2. To induce apoptosis, 1E6 cells were resuspended in 1 mL of LymphoONE media containing 1% human serum and 1 uM 4OHT. As a solvent control, same volume of ethanol was added to the cells. 20 hours after 4OHT addition, cells were stained with Annexin V and PI to measure cell death as described in Example 9.

primary T cells [2] = experiment: Caspase-3/7 Green time course of 4OHT-mediated death in transduced primary T cells; format: cell-based
Experimental: To characterize tamoxifen-induced killing activity in transfected Jurkat cells over time, Jurkat cells were transfected with 1 ug DNA per 1 E6 cells as described previously above. 24 hours post-transfection, Jurkat cells were harvested and resuspended in complete RPMI media containing 10% FBS, 1% Pen/Strep, and 5 uM Caspase-3/7 Green Reagent (Essen Bioscience 4440). The resuspended cells were plated onto poly-L-ornithine treated 384-well plates and left at room temperature for 30 minutes. Then, RPMI+10% FBS+1% Pen/Strep+5 uM Caspase-3/7 Green Reagent containing appropriate 2×4OHT or EtOH was added to the cells. Induction of apoptosis was measured using the Caspase-3/7 dye, which couples caspase-3/7 recognition motif with a DNA intercalating dye. Cells turn green if and only if caspase-3/7-mediated apoptosis occurs. The cells were imaged using the IncuCyte S3 Live-Cell Analysis System.
Primary T cells transduced with D-ESR1 were prepared similarly to Jurkat cells in Example 9 and 4OHT-mediated death was measured using the Caspase-3/7 Green Reagent as described in Example 9.

[3] = HEK293T, 2, 3, or 6 ug DNA per 1E6 cells
[4] = HEK293T, 1 ug per 1E6 cells, 18-24 hours

Molecule	inducible apoptosis with 4OHT (Jurkat cells)	background apoptosis / killing (Jurkat cells)	induction of apoptosis with 4OHT (Jurkat cells)	background cell death (Jurkat cells)	inducibility of apoptosis with 4OHT (HEK293T cells; [3])	cell death observed (HEK293T cells; [4])	also measured
B1	high inducibility	low background killing	robustly induced at either 200 nM or 1 uM 4OHT	relatively high background levels of cell death			
B2				relatively high background levels of cell death			
B3	showed inducible apoptosis	low background apoptosis	consistently induced apoptosis		increases the window of induction		inducibility of apoptosis with 4OHT (HEK293T cells; HEK293T, 2, 3, or 6 ug DNA per 1E6 cells, listed as C3454): retained activity across cell types; background apoptosis (HEK293T cells; HEK293T, 2, 3, or 6 ug DNA per 1E6 cells, ethanol solvent control): does not increase background; inducible killing with 4OHT, Annexin V and PI (primary T cells [1]; 1 uM 4OHT): greatest inducible killing; background cell death, Annexin V and PI (primary T cells [1]; ethanol solvent control): low background; background apoptosis, Caspase-3/7 Green Reagent (primary T cells [2]): low background; inducible apoptosis, Caspase-3/7 Green Reagent (primary T cells [2]; 4OHT): inducible apoptosis is seen
B4						negligible death	
B5						significant death	Annexin V+ cells (HEK293T cells; HEK293T, 1 ug per 1E6 cells, regardless of the presence of tamoxifen, 18-24 hours): 60-70%
B6	showed inducible apoptosis				not inducible		
